Measurements from the supplement of paper PMC9112550, “Optimization of the antimicrobial peptide Bac7 by deep mutational scanning” (BMC Biology, 2022).

Each sequence was assayed on Escherichia coli TOP10 (assay: shrunken log2 fold change of peptide-encoding DNA abundance (4.5 h post-induction vs induction); higher = less antimicrobial activity (less host growth inhibition)). Conditions: time post-induction: 4.5 h; library: site-saturation at positions 5, 18, 19, 20.
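Also: peptides expressed intracellularly from a pBAD plasmid library in pooled LB shake-flask culture, induced with 0.3% L-arabinose, DNA abundance read by NGS, three biological replicates, DESeq2 with apeglm shrinkage.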

Sequence | shrunken log2 fold change
RRIRARPPRLPRPRPRPTYYPRP | -0.119
RRIRYRPPRLPRPRPRPNWLPRP | -0.226
RRIRYRPPRLPRPRPRPSNKPRP | -0.953
RRIRLRPPRLPRPRPRPLRLPRP | 0.417
RRIRPRPPRLPRPRPRPETYPRP | -0.0102
RRIRLRPPRLPRPRPRPFMRPRP | 0.495
RRIRERPPRLPRPRPRPNPQPRP | 0.0138
RRIRPRPPRLPRPRPRPGVWPRP | 0.54
RRIRARPPRLPRPRPRPTQKPRP | -0.0406
RRIRRRPPRLPRPRPRPKRVPRP | 0.298
RRIRERPPRLPRPRPRPAIWPRP | 0.129
RRIRTRPPRLPRPRPRPDSPPRP | -0.549
RRIRERPPRLPRPRPRPSNWPRP | -0.296
RRIRNRPPRLPRPRPRPPSHPRP | -0.301
RRIRQRPPRLPRPRPRPIITPRP | -1.01
RRIRWRPPRLPRPRPRPSTAPRP | 0.316
RRIRVRPPRLPRPRPRPRPTPRP | 0.268
RRIRIRPPRLPRPRPRPSLHPRP | -0.824
RRIRLRPPRLPRPRPRPRLQPRP | 0.15
RRIRDRPPRLPRPRPRPGVMPRP | 0.521
RRIRGRPPRLPRPRPRPFSWPRP | 0.353
RRIRIRPPRLPRPRPRPPLMPRP | -0.16

Sequence | shrunken log2 fold change
RRIRSRPPRLPRPRPRPASCPRP | 0.131
RRIRFRPPRLPRPRPRPIRMPRP | -0.191
RRIRKRPPRLPRPRPRPWTGPRP | -0.0587
RRIRKRPPRLPRPRPRPVYPPRP | 0.293
RRIRSRPPRLPRPRPRPLRDPRP | 0.439
RRIRKRPPRLPRPRPRPPFTPRP | 0.243
RRIRARPPRLPRPRPRPLYMPRP | -0.48
RRIRLRPPRLPRPRPRPFSTPRP | 0.0382
RRIRKRPPRLPRPRPRPDDNPRP | 1.02
RRIRGRPPRLPRPRPRPRVVPRP | 0.667
RRIRSRPPRLPRPRPRPPHRPRP | 0.182
RRIRNRPPRLPRPRPRPLFHPRP | -0.595
RRIRTRPPRLPRPRPRPNQMPRP | -0.334
RRIRYRPPRLPRPRPRPKAPPRP | 0.291
RRIRARPPRLPRPRPRPNTYPRP | -0.627
RRIRYRPPRLPRPRPRPASQPRP | -0.08
RRIRKRPPRLPRPRPRPLFFPRP | 0.147
RRIRARPPRLPRPRPRPAYDPRP | 0.00165
RRIRVRPPRLPRPRPRPYFIPRP | -0.72
RRIRCRPPRLPRPRPRPRPKPRP | 0.901
RRIRVRPPRLPRPRPRPMNEPRP | -0.111
RRIRARPPRLPRPRPRPEYNPRP | 0.102

Sequence | shrunken log2 fold change
RRIRARPPRLPRPRPRPNNQPRP | -0.309
RRIRMRPPRLPRPRPRPPVSPRP | 1.27
RRIRSRPPRLPRPRPRPMWMPRP | -0.344
RRIRRRPPRLPRPRPRPWIAPRP | -0.00369
RRIRVRPPRLPRPRPRPPSPPRP | 0.417
RRIRARPPRLPRPRPRPTLCPRP | 0.392
RRIRLRPPRLPRPRPRPSSDPRP | 0.128
RRIRKRPPRLPRPRPRPSGCPRP | -0.00526
RRIRTRPPRLPRPRPRPDIEPRP | -0.117
RRIRPRPPRLPRPRPRPQLYPRP | -0.0926
RRIRPRPPRLPRPRPRPLCRPRP | 0.0255
RRIRRRPPRLPRPRPRPIWVPRP | 0.222
RRIRRRPPRLPRPRPRPSTCPRP | 0.0254
RRIRSRPPRLPRPRPRPKKIPRP | 0.139
RRIRHRPPRLPRPRPRPINDPRP | -0.887
RRIRFRPPRLPRPRPRPQGPPRP | 0.0563
RRIRCRPPRLPRPRPRPLHWPRP | 0.467
RRIRLRPPRLPRPRPRPRGCPRP | 0.246
RRIRRRPPRLPRPRPRPSRLPRP | 0.177
RRIRQRPPRLPRPRPRPAMMPRP | 0.00621
RRIRHRPPRLPRPRPRPATDPRP | -0.185
RRIRNRPPRLPRPRPRPNVPPRP | -0.128

Sequence | shrunken log2 fold change
RRIRDRPPRLPRPRPRPITFPRP | -0.822
RRIRFRPPRLPRPRPRPWEAPRP | -0.0969
RRIRERPPRLPRPRPRPVGWPRP | 0.888
RRIRGRPPRLPRPRPRPNSCPRP | 0.0941
RRIRTRPPRLPRPRPRPRCFPRP | 0.204
RRIRLRPPRLPRPRPRPVHVPRP | -0.0937
RRIRSRPPRLPRPRPRPDIAPRP | -0.0218
RRIRLRPPRLPRPRPRPDTWPRP | 0.0224
RRIRERPPRLPRPRPRPNKQPRP | -0.174
RRIRPRPPRLPRPRPRPNATPRP | 0.323
RRIRYRPPRLPRPRPRPHQYPRP | -0.402
RRIRSRPPRLPRPRPRPTGKPRP | 0.274
RRIRKRPPRLPRPRPRPKLPPRP | 0.244
RRIRQRPPRLPRPRPRPLNNPRP | -0.586
RRIRVRPPRLPRPRPRPVMFPRP | -0.305
RRIRFRPPRLPRPRPRPCLVPRP | -0.208
RRIRCRPPRLPRPRPRPNKGPRP | -0.302
RRIRIRPPRLPRPRPRPVIQPRP | -1.44
RRIRLRPPRLPRPRPRPDADPRP | 1.25
RRIRGRPPRLPRPRPRPTCYPRP | 0.34
RRIRMRPPRLPRPRPRPFAYPRP | -0.157
RRIRGRPPRLPRPRPRPQTWPRP | 0.0175

Sequence | shrunken log2 fold change
RRIRDRPPRLPRPRPRPNDHPRP | -0.53
RRIRPRPPRLPRPRPRPVTQPRP | 0.2
RRIRNRPPRLPRPRPRPNGWPRP | -0.0113
RRIRQRPPRLPRPRPRPPNVPRP | -0.0755
RRIRFRPPRLPRPRPRPTPGPRP | 0.677
RRIRRRPPRLPRPRPRPMVNPRP | -0.0292
RRIRFRPPRLPRPRPRPTRRPRP | 0.928
RRIRYRPPRLPRPRPRPNAIPRP | -0.0737
RRIRQRPPRLPRPRPRPQPGPRP | 0.0446
RRIRSRPPRLPRPRPRPIYGPRP | -0.306
RRIRTRPPRLPRPRPRPAWDPRP | 0.454
RRIRRRPPRLPRPRPRPSMDPRP | 0.0821
RRIRSRPPRLPRPRPRPKRCPRP | -0.0384
RRIRFRPPRLPRPRPRPMHPPRP | -0.082
RRIRIRPPRLPRPRPRPPCNPRP | -0.449
RRIRGRPPRLPRPRPRPKPYPRP | 0.332
RRIRNRPPRLPRPRPRPPLLPRP | 0.125
RRIRERPPRLPRPRPRPRTCPRP | -0.0174
RRIRERPPRLPRPRPRPCNLPRP | -0.904
RRIRYRPPRLPRPRPRPGWSPRP | -0.135
RRIRQRPPRLPRPRPRPNVGPRP | -0.0447
